From patent US20100254972A1

What was measured:
[1] = target: human TNFR1 (soluble recombinant protein) (human) (UniProt P19438); assay: phage ELISA, plate coated with 1 nM TNFR1, anti-M13-HRP; trypsin 0 µg/ml; phage input 2.26E+10
[2] = target: human TNFR1 (soluble recombinant protein) (human) (UniProt P19438); assay: phage ELISA, plate coated with 1 nM TNFR1, anti-M13-HRP; trypsin 10 µg/ml; phage input 1.13E+10
[3] = target: human TNFR1 (soluble recombinant protein) (human) (UniProt P19438); assay: phage ELISA, plate coated with 1 nM TNFR1, anti-M13-HRP; trypsin 100 µg/ml; phage input 3.52E+08
[4] = target: human TNFR1 (soluble recombinant protein) (human) (UniProt P19438); assay: phage ELISA, plate coated with 1 nM TNFR1, anti-M13-HRP; trypsin 100 µg/ml; phage input 2.82E+09
[5] = target: human TNFR1 (soluble recombinant protein) (human) (UniProt P19438); assay: phage ELISA, plate coated with 1 nM TNFR1, anti-M13-HRP; trypsin 100 µg/ml; phage input 5.64E+09
[6] = target: human TNFR1 (soluble recombinant protein) (human) (UniProt P19438); assay: phage ELISA, plate coated with 1 nM TNFR1, anti-M13-HRP; trypsin 10 µg/ml; phage input 7.05E+08
[7] = target: human TNFR1 (soluble recombinant protein) (human) (UniProt P19438); assay: phage ELISA, plate coated with 1 nM TNFR1, anti-M13-HRP; trypsin 100 µg/ml; phage input 4.51E+10
[8] = target: human TNFR1 (soluble recombinant protein) (human) (UniProt P19438); assay: phage ELISA, plate coated with 1 nM TNFR1, anti-M13-HRP; trypsin 1 mg/ml; phage input 7.05E+08
[9] = target: human TNFR1 (soluble recombinant protein) (human) (UniProt P19438); assay: phage ELISA, plate coated with 1 nM TNFR1, anti-M13-HRP; trypsin 0 µg/ml; phage input 1.41E+09
[10] = target: human TNFR1 (soluble recombinant protein) (human) (UniProt P19438); assay: phage ELISA, plate coated with 1 nM TNFR1, anti-M13-HRP; trypsin 10 µg/ml; phage input 5.64E+09
[11] = target: human TNFR1 (soluble recombinant protein) (human) (UniProt P19438); assay: phage ELISA, plate coated with 1 nM TNFR1, anti-M13-HRP; trypsin 100 µg/ml; phage input 2.26E+10
[12] = target: human TNFR1 (soluble recombinant protein) (human) (UniProt P19438); assay: phage ELISA, plate coated with 1 nM TNFR1, anti-M13-HRP; trypsin 1 mg/ml; phage input 1.13E+10
[13] = target: human TNFR1 (soluble recombinant protein) (human) (UniProt P19438); assay: phage ELISA, plate coated with 1 nM TNFR1, anti-M13-HRP; trypsin 0 µg/ml; phage input 4.51E+10
[14] = target: human TNFR1 (soluble recombinant protein) (human) (UniProt P19438); assay: phage ELISA, plate coated with 1 nM TNFR1, anti-M13-HRP; phage treated 1 h RT with trypsin 1 mg/ml; phage input 4.51E+10
[15] = target: human TNFR1 (soluble recombinant protein) (human) (UniProt P19438); assay: phage ELISA, plate coated with 1 nM TNFR1, anti-M13-HRP; trypsin 1 mg/ml; phage input 1.41E+09
[16] = target: human TNFR1 (soluble recombinant protein) (human) (UniProt P19438); assay: phage ELISA, plate coated with 1 nM TNFR1, anti-M13-HRP; trypsin 0 µg/ml; phage input 1.13E+10
[17] = target: human TNFR1 (soluble recombinant protein) (human) (UniProt P19438); assay: phage ELISA, plate coated with 1 nM TNFR1, anti-M13-HRP; trypsin 0 µg/ml; phage input 3.52E+08
[18] = target: human TNFR1 (soluble recombinant protein) (human) (UniProt P19438); assay: phage ELISA, plate coated with 1 nM TNFR1, anti-M13-HRP; trypsin 100 µg/ml; phage input 7.05E+08
[19] = target: human TNFR1 (soluble recombinant protein) (human) (UniProt P19438); assay: phage ELISA, plate coated with 1 nM TNFR1, anti-M13-HRP; trypsin 10 µg/ml; phage input 1.41E+09
[20] = target: human TNFR1 (soluble recombinant protein) (human) (UniProt P19438); assay: phage ELISA, plate coated with 1 nM TNFR1, anti-M13-HRP; trypsin 1 mg/ml; phage input 2.26E+10
[21] = target: human TNFR1 (soluble recombinant protein) (human) (UniProt P19438); assay: phage ELISA, plate coated with 1 nM TNFR1, anti-M13-HRP; trypsin 10 µg/ml; phage input 3.52E+08
[22] = target: human TNFR1 (soluble recombinant protein) (human) (UniProt P19438); assay: phage ELISA, plate coated with 1 nM TNFR1, anti-M13-HRP; trypsin 1 mg/ml; phage input 3.52E+08
[23] = target: human TNFR1 (soluble recombinant protein) (human) (UniProt P19438); assay: phage ELISA, plate coated with 1 nM TNFR1, anti-M13-HRP; trypsin 10 µg/ml; phage input 2.26E+10
[24] = target: human TNFR1 (soluble recombinant protein) (human) (UniProt P19438); assay: phage ELISA, plate coated with 1 nM TNFR1, anti-M13-HRP; trypsin 1 mg/ml; phage input 5.64E+09
[25] = target: human TNFR1 (soluble recombinant protein) (human) (UniProt P19438); assay: phage ELISA, plate coated with 1 nM TNFR1, anti-M13-HRP; trypsin 1 mg/ml; phage input 2.82E+09
[26] = target: human TNFR1 (soluble recombinant protein) (human) (UniProt P19438); assay: phage ELISA, plate coated with 1 nM TNFR1, anti-M13-HRP; trypsin 10 µg/ml; phage input 4.51E+10
[27] = target: human TNFR1 (soluble recombinant protein) (human) (UniProt P19438); assay: phage ELISA, plate coated with 1 nM TNFR1, anti-M13-HRP; trypsin 10 µg/ml; phage input 2.82E+09
[28] = target: human TNFR1 (soluble recombinant protein) (human) (UniProt P19438); assay: phage ELISA, plate coated with 1 nM TNFR1, anti-M13-HRP; trypsin 0 µg/ml; phage input 5.64E+09
[29] = target: human TNFR1 (soluble recombinant protein) (human) (UniProt P19438); assay: phage ELISA, plate coated with 1 nM TNFR1, anti-M13-HRP; trypsin 100 µg/ml; phage input 1.41E+09
[30] = target: human TNFR1 (soluble recombinant protein) (human) (UniProt P19438); assay: phage ELISA, plate coated with 1 nM TNFR1, anti-M13-HRP; trypsin 100 µg/ml; phage input 1.13E+10
[31] = target: human TNFR1 (soluble recombinant protein) (human) (UniProt P19438); assay: phage ELISA, plate coated with 1 nM TNFR1, anti-M13-HRP; trypsin 0 µg/ml; phage input 2.82E+09
[32] = target: human TNFR1 (soluble recombinant protein) (human) (UniProt P19438); assay: phage ELISA, plate coated with 1 nM TNFR1, anti-M13-HRP; trypsin 0 µg/ml; phage input 7.05E+08

human TNFR1 (soluble recombinant protein) (human), sequence (P19438 41-201 limits assumed): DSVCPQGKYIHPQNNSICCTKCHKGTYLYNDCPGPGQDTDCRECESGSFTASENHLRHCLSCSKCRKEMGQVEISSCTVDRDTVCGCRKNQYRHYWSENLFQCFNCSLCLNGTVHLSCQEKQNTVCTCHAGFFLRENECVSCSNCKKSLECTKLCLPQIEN

Substance: DOM1h-131
- phage ELISA signal [1]: 0.944
- phage ELISA signal [2]: 0.86
- phage ELISA signal [3]: 0.084
- phage ELISA signal [4]: 0.141
- phage ELISA signal [5]: 0.196
- phage ELISA signal [6]: 0.286
- phage ELISA signal [7]: 0.418
- phage ELISA signal [8]: 0.084
- phage ELISA signal [9]: 0.85
- phage ELISA signal [10]: 0.695
- phage ELISA signal [11]: 0.377
- phage ELISA signal [12]: 0.183
- phage ELISA signal [13]: 0.916
- phage ELISA signal [14]: 0.284
- phage ELISA signal [15]: 0.089
- phage ELISA signal [16]: 0.949
- phage ELISA signal [17]: 0.577
- phage ELISA signal [18]: 0.084
- phage ELISA signal [19]: 0.409
- phage ELISA signal [20]: 0.229
- phage ELISA signal [21]: 0.213
- phage ELISA signal [22]: 0.08
- phage ELISA signal [23]: 0.802
- phage ELISA signal [24]: 0.133
- phage ELISA signal [25]: 0.114
- phage ELISA signal [26]: 0.784
- phage ELISA signal [27]: 0.573
- phage ELISA signal [28]: 0.962
- phage ELISA signal [29]: 0.115
- phage ELISA signal [30]: 0.284
- phage ELISA signal [31]: 0.946
- phage ELISA signal [32]: 0.705
